Reference: article PMC5087665

Target: CFF–Myc
Test: co-IP; Fig. 5D: HEK293T lysates co-expressing HA–TNPO1, CFF–Myc and GFP–Rab8-wt, GFP–Rab8-QL, GFP–Rab8-TN or GFP; anti-Myc immunoprecipitation; blotted for TNPO1 and GFP chimeras

HA–TNPO1, sequence (Q92973 whole entry): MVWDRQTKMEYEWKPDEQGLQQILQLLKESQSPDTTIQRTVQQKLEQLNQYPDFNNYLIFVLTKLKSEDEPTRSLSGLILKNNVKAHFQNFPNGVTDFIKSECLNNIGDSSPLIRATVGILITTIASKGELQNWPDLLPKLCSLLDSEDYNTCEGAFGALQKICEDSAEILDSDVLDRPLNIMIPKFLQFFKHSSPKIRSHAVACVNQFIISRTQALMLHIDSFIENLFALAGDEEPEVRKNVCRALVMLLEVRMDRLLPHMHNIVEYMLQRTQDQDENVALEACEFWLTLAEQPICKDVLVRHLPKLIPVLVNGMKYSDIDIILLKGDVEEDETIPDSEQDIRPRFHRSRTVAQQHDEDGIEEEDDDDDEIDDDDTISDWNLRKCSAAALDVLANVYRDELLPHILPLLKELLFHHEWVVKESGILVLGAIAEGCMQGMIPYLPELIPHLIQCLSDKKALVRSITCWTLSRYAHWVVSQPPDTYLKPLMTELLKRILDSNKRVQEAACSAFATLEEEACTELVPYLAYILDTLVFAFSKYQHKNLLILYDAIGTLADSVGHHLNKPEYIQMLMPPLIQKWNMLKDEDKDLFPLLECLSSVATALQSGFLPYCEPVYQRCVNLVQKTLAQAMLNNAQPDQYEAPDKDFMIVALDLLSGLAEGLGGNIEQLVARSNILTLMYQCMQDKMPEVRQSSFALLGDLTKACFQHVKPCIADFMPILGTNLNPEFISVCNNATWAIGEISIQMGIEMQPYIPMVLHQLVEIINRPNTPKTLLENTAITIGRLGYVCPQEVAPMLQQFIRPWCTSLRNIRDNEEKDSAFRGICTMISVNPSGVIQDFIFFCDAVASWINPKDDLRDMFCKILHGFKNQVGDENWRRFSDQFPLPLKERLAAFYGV

fold more TNPO1 co-immunoprecipitated with Rab8-TN co-expressed than with Rab8-QL or Rab8-wt: 3 fold
Substance: HA–TNPO1 (from UniProt Q92973 1-898) (natural protein)
